Bridge positions count the residues as written; N and C are the ends. Square brackets hold non-standard residues; d marks the D form. Ends that are not written are not given here. 1Nal = N[C@@H](Cc1cccc2ccccc12)C(=O)O; 2Nal = N[C@@H](Cc1ccc2ccccc2c1)C(=O)O; d2Nal = N[C@H](Cc1ccc2ccccc2c1)C(=O)O; Bta = N[C@@H](Cc1csc2ccccc12)C(=O)O; Nle = CCCC[C@H](N)C(=O)O; Ahx = NCCCCCC(=O)O; GABA = NCCCC(=O)O

Assay [1] concerns the target hMC1-R (human) (UniProt Q01726). Briefly: ratio Ki hMC1-R / Ki hMC4-R, same assay.
The target is the same in assay [2]. Briefly: cell-based or functional assay.
Assay [3] concerns the target hMC3-R (human) (UniProt P41968). Description: cell-based or functional assay.
The target of assay [4] is hMC5-R (human) (UniProt P33032). Briefly: cell-based or functional assay.
Assay [5] addresses hMC4-R (human) (UniProt P32245). Description: cell-based or functional assay.
The target of assay [6] is hMC1-R (human) (UniProt Q01726). Description: competition with [125I]-NDP-α-MSH, CHO-K1 membranes.
Assay [7] has as its target hMC3-R (human) (UniProt P41968). The description is as above.
Assay [8] has as its target hMC5-R (human) (UniProt P33032). Described as above.
In assay [9] the target is hMC4-R (human) (UniProt P32245). The assay is described as above.
Assay [10] deals with human melanocortin receptor subtype 1 (hMC1-R) (human), Q01726. Briefly: [125I]-NDP-α-MSH competition, membranes.
Assay [11] deals with human melanocortin receptor subtype 3 (hMC3-R) (human), P41968. Description: [125I]-NDP-α-MSH competition, membranes.
The target in assay [12] is human melanocortin receptor subtype 5 (hMC5-R) (human), P33032. Description: [125I]-NDP-α-MSH competition, membranes.
Assay [13] has as its target human melanocortin receptor subtype 4 (hMC4-R) (human), P32245. Briefly: [125I]-NDP-α-MSH competition, membranes.

Sequence of human melanocortin receptor subtype 3 (hMC3-R) (human), P41968 (P41968 whole entry): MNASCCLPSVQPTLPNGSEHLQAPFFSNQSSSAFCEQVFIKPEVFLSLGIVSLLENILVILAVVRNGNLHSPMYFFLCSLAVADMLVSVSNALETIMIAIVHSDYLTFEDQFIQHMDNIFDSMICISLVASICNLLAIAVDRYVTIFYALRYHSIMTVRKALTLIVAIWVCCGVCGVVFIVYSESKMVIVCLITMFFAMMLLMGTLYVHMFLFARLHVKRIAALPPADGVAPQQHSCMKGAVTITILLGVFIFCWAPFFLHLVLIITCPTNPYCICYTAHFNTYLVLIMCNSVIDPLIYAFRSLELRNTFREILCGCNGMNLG
Sequence of hMC3-R (human) (P41968 whole entry): as above
Sequence of human melanocortin receptor subtype 1 (hMC1-R) (human), Q01726 (Q01726 whole entry): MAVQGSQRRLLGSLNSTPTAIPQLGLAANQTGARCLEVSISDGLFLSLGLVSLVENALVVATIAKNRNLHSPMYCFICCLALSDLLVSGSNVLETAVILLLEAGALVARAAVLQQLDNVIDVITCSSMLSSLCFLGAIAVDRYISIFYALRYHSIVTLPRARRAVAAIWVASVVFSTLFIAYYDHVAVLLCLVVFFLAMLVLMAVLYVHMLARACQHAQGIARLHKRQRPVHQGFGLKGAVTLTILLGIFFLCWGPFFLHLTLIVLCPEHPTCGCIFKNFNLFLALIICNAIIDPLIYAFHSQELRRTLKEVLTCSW
Sequence of hMC1-R (human) (Q01726 whole entry): as above
Sequence of human melanocortin receptor subtype 5 (hMC5-R) (human), P33032 (P33032 whole entry): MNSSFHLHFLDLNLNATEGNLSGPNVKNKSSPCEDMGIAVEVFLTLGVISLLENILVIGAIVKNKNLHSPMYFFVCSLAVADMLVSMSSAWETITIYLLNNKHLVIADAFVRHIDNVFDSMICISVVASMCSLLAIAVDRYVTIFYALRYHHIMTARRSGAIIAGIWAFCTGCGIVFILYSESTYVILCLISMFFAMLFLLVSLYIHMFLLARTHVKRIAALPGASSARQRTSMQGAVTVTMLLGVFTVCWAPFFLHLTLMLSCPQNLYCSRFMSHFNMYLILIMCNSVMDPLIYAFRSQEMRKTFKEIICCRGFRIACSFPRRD
Sequence of hMC5-R (human) (P33032 whole entry): as above
Sequence of hMC4-R (human) (P32245 whole entry): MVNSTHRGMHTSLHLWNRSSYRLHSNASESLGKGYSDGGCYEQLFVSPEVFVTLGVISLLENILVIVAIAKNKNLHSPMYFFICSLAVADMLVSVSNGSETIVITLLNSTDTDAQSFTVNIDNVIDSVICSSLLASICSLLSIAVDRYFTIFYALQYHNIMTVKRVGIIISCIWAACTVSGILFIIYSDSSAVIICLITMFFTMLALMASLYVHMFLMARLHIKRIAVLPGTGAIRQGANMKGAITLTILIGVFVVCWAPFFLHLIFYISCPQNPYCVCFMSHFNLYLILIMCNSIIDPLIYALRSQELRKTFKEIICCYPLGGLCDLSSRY
Sequence of human melanocortin receptor subtype 4 (hMC4-R) (human), P32245 (P32245 whole entry): as above

B1: Ac-Nle-c(Cys-D-Ala-His-D-2-Nal-Arg-1-Nal-Cys)-NH2 (peptide)
peptide: Ac-[Nle]C[dA]H[d2Nal]R[1Nal]C-NH2
modifications: disulfide 2-8
SMILES: CCCC[C@H](NC(C)=O)C(=O)N[C@H]1CSSC[C@@H](C(N)=O)NC(=O)[C@H](Cc2cccc3ccccc23)NC(=O)[C@H](CCCNC(=N)N)NC(=O)[C@@H](Cc2ccc3ccccc3c2)NC(=O)[C@H](Cc2c[nH]cn2)NC(=O)[C@@H](C)NC1=O
In general, Ki refers to the equilibrium dissociation constant of an inhibitor or competing ligand from its target. Regarding B1, the Ki hMC1-R/MC4-R with hMC1-R (human) [1] came to 37.1. Besides, the figures for the cAMP EC50 with hMC1-R (human) [2] and in the assay with hMC5-R (human) [4] were 383 nM and 2840 nM, respectively. The cAMP Kb is 61.5 nM with hMC3-R (human) [3] and 53.6 nM with hMC4-R (human) [5]. Also, the inhibition constant Ki worked out at 114 nM in the assay with hMC1-R (human) [6], 63.9 nM in the assay with hMC3-R (human) [7], 1660 nM with hMC5-R (human) [8] and 3.07 nM with hMC4-R (human) [9].
As to Ac-[Nle]CH[d2Nal]RW[GABA]C-NH2 (disulfide 2-8) [Ac-Nle-c(Cys-His-D-2-Nal-Arg-Trp-Gaba-Cys)-NH2], in the assay with hMC1-R (human) [1], the Ki hMC1-R/MC4-R was 1.05. The cAMP EC50 with hMC1-R (human) [2] amounted to 0.231 nM; with hMC5-R (human) [4] it was 0.153 nM. The cAMP Kb with hMC3-R (human) [3] is 18.4 nM; with hMC4-R (human) [5], 0.782 nM. The Ki turned out to be 0.393 nM with hMC1-R (human) [6], 1.86 nM in the assay with hMC3-R (human) [7], 1.11 nM with hMC5-R (human) [8] and 0.375 nM in the assay with hMC4-R (human) [9].

B2: Ac-Trp-Arg-c(Cys-D-Ala-His-D-Phe-Arg-Trp-Cys)-NH2 (peptide)
peptide: Ac-WRC[dA]H[dF]RWC-NH2
modifications: disulfide 3-9
SMILES: CC(=O)N[C@@H](Cc1c[nH]c2ccccc12)C(=O)N[C@@H](CCCNC(=N)N)C(=O)N[C@H]1CSSC[C@@H](C(N)=O)NC(=O)[C@H](Cc2c[nH]c3ccccc23)NC(=O)[C@H](CCCNC(=N)N)NC(=O)[C@@H](Cc2ccccc2)NC(=O)[C@H](Cc2c[nH]cn2)NC(=O)[C@@H](C)NC1=O
As to B2, the Ki was 4.7 nM in assay [10], 42 nM in assay [11], 1470 nM in assay [12] and 2.25 nM in assay [13].
Regarding AGC[dA]H[dF]RWC-NH2 (disulfide 3-9; also: hydantoin ring: C(O) bridging Ala-Gly) [Hydantoin(C(O)-(Ala-Gly))-c(Cys-D-Ala-His-D-Phe-Arg-Trp-Cys)-NH2], the inhibition constant (Ki) in assay [10] was determined as 13.9 nM; in [11] it was 38.4 nM; in [12], 18.9 nM; in assay [13] it was 5.73 nM.
On the same counts, the results for LGC[dA]H[dF]RWC-NH2 (disulfide 3-9; also: hydantoin ring from C(O) with Leu1-Gly2) [Hydantoin(C(O)-(Leu-Gly))-c(Cys-D-Ala-His-D-Phe-Arg-Trp-Cys)-NH2] are 19.3 nM, 331 nM, 44.6 nM and 26.7 nM.
For RGC[dA]H[dF]RWC-NH2 (disulfide 3-9; also: hydantoin ring: C(O) bridging Arg-Gly) [Hydantoin(C(O)-(Arg-Gly))-c(Cys-D-Ala-His-D-Phe-Arg-Trp-Cys)-NH2], the inhibition constant (Ki) in [10] is 2.65 nM; in assay [11], 41.3 nM; in assay [12], 650 nM; in [13] it was 4.17 nM.
GGC[dA]H[dF]RWC-NH2 (disulfide 3-9; also: hydantoin ring from C(O) with Gly1-Gly2) [Hydantoin(C(O)-(Gly-Gly))-c(Cys-D-Ala-His-D-Phe-Arg-Trp-Cys)-NH2]: the inhibition constant (Ki) in [10] was determined as 20.9 nM; in assay [11] it was 69.7 nM; in assay [12] it was 50 nM; in [13], 8.32 nM.
On the same counts, the results for GRC[dA]H[dF]RWC-NH2 (disulfide 3-9; also: hydantoin ring from C(O) with Gly1-Arg2) [Hydantoin(C(O)-(Gly-Arg))-c(Cys-D-Ala-His-D-Phe-Arg-Trp-Cys)-NH2] are 1.14 nM, 1.7 nM, 783 nM and 4.53 nM.
Turning to IGC[dA]H[dF]RWC-NH2 (disulfide 3-9; also: hydantoin ring from C(O) with Ile1-Gly2) [Hydantoin(C(O)-(Ile-Gly))-c(Cys-D-Ala-His-D-Phe-Arg-Trp-Cys)-NH2], the Ki came to 11.6 nM in assay [10], 194 nM in assay [11], 28.9 nM in assay [12] and 11.5 nM in [13].

B3: Ac-c(Cys-Glu-His-D-2-Nal-Arg-Bal-Ala-Cys)-Pro-Pro-Lys-Asp-NH2 (peptide)
peptide: Ac-CEH[d2Nal]R[Bta]ACPPKD-NH2
modifications: disulfide 1-8
SMILES: CC(=O)N[C@H]1CSSC[C@@H](C(=O)N2CCC[C@H]2C(=O)N2CCC[C@H]2C(=O)N[C@@H](CCCCN)C(=O)N[C@@H](CC(=O)O)C(N)=O)NC(=O)[C@H](C)NC(=O)[C@H](Cc2csc3ccccc23)NC(=O)[C@H](CCCNC(=N)N)NC(=O)[C@@H](Cc2ccc3ccccc3c2)NC(=O)[C@H](Cc2c[nH]cn2)NC(=O)[C@H](CCC(=O)O)NC1=O
B3: the Ki worked out at 163 nM in [10], 23 nM in [11], 844 nM in [12] and 0.586 nM in [13].

B4: Ac-Phe-Arg-c(Cys-D-Ala-His-D-Phe-Arg-Trp-Cys)-NH2 (peptide)
peptide: Ac-FRC[dA]H[dF]RWC-NH2
modifications: disulfide 3-9
SMILES: CC(=O)N[C@@H](Cc1ccccc1)C(=O)N[C@@H](CCCNC(=N)N)C(=O)N[C@H]1CSSC[C@@H](C(N)=O)NC(=O)[C@H](Cc2c[nH]c3ccccc23)NC(=O)[C@H](CCCNC(=N)N)NC(=O)[C@@H](Cc2ccccc2)NC(=O)[C@H](Cc2c[nH]cn2)NC(=O)[C@@H](C)NC1=O
As for B4, the inhibition constant Ki in assay [10] was 1.48 nM; in assay [11], 14.8 nM; in assay [12], 491 nM; in [13], 2.34 nM.
In the case of VGC[dA]H[dF]RWC-NH2 (disulfide 3-9; also: hydantoin ring from C(O) with Val1-Gly2) [Hydantoin(C(O)-(Val-Gly))-c(Cys-D-Ala-His-D-Phe-Arg-Trp-Cys)-NH2], the Ki amounted to 15.3 nM in [10], 160 nM in [11], 33.4 nM in assay [12] and 8.66 nM in [13].

B5: D-Phe-c(Cys-His-D-Phe-Arg-Trp-Gaba-D-Cys)-Thr-NH2 (peptide)
peptide: [dF]CH[dF]RW[GABA][dC]T-NH2
modifications: disulfide 2-8; N-terminus assumed
SMILES: C[C@@H](O)[C@H](NC(=O)[C@H]1CSSC[C@H](NC(=O)[C@H](N)Cc2ccccc2)C(=O)N[C@@H](Cc2c[nH]cn2)C(=O)N[C@H](Cc2ccccc2)C(=O)N[C@@H](CCCNC(=N)N)C(=O)N[C@@H](Cc2c[nH]c3ccccc23)C(=O)NCCCC(=O)N1)C(N)=O
With B5, the Ki hMC1-R/MC4-R with hMC1-R (human) [1] came out at 0.09. For the same molecule, the Ki turned out to be 0.42 nM with hMC1-R (human) [6], 106 nM in the assay with hMC3-R (human) [7], 1260 nM with hMC5-R (human) [8] and 4.75 nM with hMC4-R (human) [9].

B6: Ac-c(Cys-Glu-His-D-2-Nal-Arg-1-Nal-Ala-Cys)-Pro-Pro-Lys-Asp-NH2 (peptide)
peptide: Ac-CEH[d2Nal]R[1Nal]ACPPKD-NH2
modifications: disulfide 1-8
SMILES: CC(=O)N[C@H]1CSSC[C@@H](C(=O)N2CCC[C@H]2C(=O)N2CCC[C@H]2C(=O)N[C@@H](CCCCN)C(=O)N[C@@H](CC(=O)O)C(N)=O)NC(=O)[C@H](C)NC(=O)[C@H](Cc2cccc3ccccc23)NC(=O)[C@H](CCCNC(=N)N)NC(=O)[C@@H](Cc2ccc3ccccc3c2)NC(=O)[C@H](Cc2c[nH]cn2)NC(=O)[C@H](CCC(=O)O)NC1=O
Consider B6, for which the Ki in assay [10] was 124 nM; in [11], 17.8 nM; in assay [12], 348 nM; in [13], 1.11 nM.

B7: Hydantoin(C(O)-(Nle-Gly))-c(Cys-D-Ala-His-D-Phe-Arg-Trp-Cys)-NH2 (peptide)
peptide: [Nle]GC[dA]H[dF]RWC-NH2
modifications: disulfide 3-9; also: N-terminal hydantoin: C(O) bridges X1 N-terminal N and G2 backbone N, bridge at N via C(O), other end not in the chain
As to B7, the Ki was 7.92 nM in assay [10], 46.4 nM in assay [11], 21.3 nM in assay [12] and 6.7 nM in [13].

B8: Ac-c(Cys-Glu-His-D-2-Nal-Arg-2-Nal-Ala-Cys)-Pro-Pro-Lys-Asp-NH2 (peptide)
peptide: Ac-CEH[d2Nal]R[2Nal]ACPPKD-NH2
modifications: disulfide 1-8
SMILES: CC(=O)N[C@H]1CSSC[C@@H](C(=O)N2CCC[C@H]2C(=O)N2CCC[C@H]2C(=O)N[C@@H](CCCCN)C(=O)N[C@@H](CC(=O)O)C(N)=O)NC(=O)[C@H](C)NC(=O)[C@H](Cc2ccc3ccccc3c2)NC(=O)[C@H](CCCNC(=N)N)NC(=O)[C@@H](Cc2ccc3ccccc3c2)NC(=O)[C@H](Cc2c[nH]cn2)NC(=O)[C@H](CCC(=O)O)NC1=O
Turning to B8, the Ki in assay [10] stood at 87.8 nM; in [11] it was 9.08 nM; in assay [12], 359 nM; in [13], 1.2 nM.
Regarding Ac-[Nle]CH[d2Nal]RW[Ahx]C-NH2 (disulfide 2-8) [Ac-Nle-c(Cys-His-D-2-Nal-Arg-Trp-Ahx-Cys)-NH2], the Ki hMC1-R/MC4-R in the assay with hMC1-R (human) [1] turned out to be 0.33. For the same molecule, the results for the cAMP EC50 in the assay with hMC1-R (human) [2] and with hMC5-R (human) [4] were 0.581 nM and 0.126 nM, respectively. The cAMP Kb with hMC3-R (human) [3] came out at 10.8 nM; with hMC4-R (human) [5] it was 0.967 nM. Further, the Ki came out at 0.333 nM with hMC1-R (human) [6], 2.91 nM with hMC3-R (human) [7], 0.366 nM with hMC5-R (human) [8] and 0.998 nM with hMC4-R (human) [9].

These data come from US20120135923A1, “Use of Melanocortins to Treat Dyslipidemia” (IPSEN PHARMA, S.A.S., priority 2009, published 2012).
